# Patent US20250263490A1 (VIB VZW, published 2025)
# B1: anti-CI-M6PR VHH7 (VHH)
# VHH: QVQLQESGGGLVQPGGSLRLSCAASGIIFSDNRMDWYRQAPGKQREWVATLASYGWKTYADSVKGRFTISRDNTKNTVYLRMNSLKPEDTAVYYCKASSPVLNDIWGQGTQVTVSS
# notes: His6-tagged (Pichia pastoris)
# B2: anti-CI-M6PR VHH1 (VHH)
# VHH: QVQLQESGGGLVQPGGSLRLSCVASGFTFDRYWMNWLRQIPGKEIEWVSTINTGGTGTYYDDSVKGRFSISRDDAKNTLYLTMNSLKTEDTAVYYCARGATYYRGNSAIRGQGTQVTVSS
# notes: His6-tagged; made in Pichia pastoris, later also in E. coli WK6
# B3: anti-CI-M6PR VHH5 (VHH)
# VHH: QVQLQESGGGLVQAGGSLKLSCAAAGRTFSRLAMGWFRQAPGKEREFVAAISENGDSIHYSDSVKGRFAVSRDNAKNTVYLQMNSLKPEDTAIYYCAADRAAYYCSGSGCYPSRAPAAASYDYWGQGTQVTVSS
# notes: as for B2
# B4: anti-CI-M6PR VHH8 (VHH)
# VHH: QVQLQESGGGLVQAGGSLRLSCEASGRTFNTYNWGWFRQAPGKEREFVAAIRWSSSKTSYADSVKGRFTISRDNAKNTIYLQMNSLKPEDTAVYYCAASIVDFTTNPSHFGSWGQGTQVTVSS
# notes: His6-tagged (Pichia pastoris)
# B5: anti-CI-M6PR VHH3 (VHH)
# VHH: QVQLQESGGGLVQPGGSLRLSCAAFGLNFKNFDMIWFRQAPGEERDIVAAISSSSSTIWYEDSVKGRFTISRDNAKNTVYLQMNSLKPEDTAVYYCAAALTSWRRPDYWGQGTQVTVSS
# notes: His6-tagged; made in Pichia pastoris
# B6: anti-CI-M6PR VHH4 (VHH)
# VHH: QVQLQESGGGLVQAGGSLRLSCAASGRTFSNYVMGWFRQAPGKEREFVGSISQGGKMTYYPDSVKGRFTISRDNAKNTMYLQMDGLKPEDTAVYYCAVSRGYPMVRVSEVDYWGQGTQVTVSS
# notes: as for B5
# B7: anti-CI-M6PR VHH6 (VHH)
# VHH: QVQLQESGGGLVQAGGSLRLSCAVSGSISSIGGMGWFRQAPGKQREFVAVILNNSGMTSYADSVKGRFTISRGNSKNTMYLQMNSLKPEDTAVYYCNYSGYWGQGTQVTVSS
# notes: His6-tagged; made in E. coli
# B8: anti-CI-M6PR VHH9 (VHH)
# VHH: QVQLQESGGGLVQAGGSLRLSCAASGTILSIKTMGWYRQAPGKEREWVATITSSSIPMYADSVKGRFTISRDDAKNTVYLQMNSLKPEDTGVYYCNAPWTDYWGQGTQVTVSS
# notes: as for B5
# Assays:
# [1] = biological target: T1, recombinant human domain 1-3His6 of the cation-independent mannose-6-phosphate receptor (human, UniProt P11717 41-467); assay: BLI at pH 7.4, 1st of 2 repeats
# T1 construct: Biotinylated (NHS-PEG4-biotin) for BLI; Glycosylated; also called hDom1-3His6; hCI-M6PRD1-D3
# Description: (§1) For each of the 11 anti-CI-M6PR VHHs, a biolayer interferometry (BLI) experiment was performed in which the hDom₁₋₃His₆ was biotinylated and coupled to streptavidin biosensor tips. Afterwards, the tips were incubated with serially diluted VHHs during the association phase and dissociation was performed at pH 7.4. Similarly, dissociation was performed at pH 7.0, pH 6.0 and pH 5.0 as well after regeneration of the biosensor tips. […] The anti-CI-M6PR antibody (clone 2G11) and GBP were used as positive and negative controls, respectively.
# (§2) Analysis of the binding kinetics was performed using an Octet Red96 (FortéBio) device with Streptavidin SA Biosensor tips (VWR 733-2145). Therefore, 1 mL of human domain₁₋₃His₆ (0.5 mg/mL in 50 mM MES, 150 mM NaCl, pH 6.5) was incubated at room temperature for 30 minutes with EZ-Link™ NHS-PEG4-Biotin (1 mg) (Thermo Fischer A39259) and NaHCO₃ (100 mM). Biotinylated human domain₁₋₃His₆ was purified using a Zeba spin desalting Column™ (7K MWCO, 2 mL, Thermo Fischer 89890) and 1 μg/mL was used for immobilization on the Streptavidin SA Biosensor tips. The loaded tips were dipped into a particular anti-CI-M6PR VHH solution, serially diluted in kinetics buffer (0.2M NaH₂PO₄, 0.1M Na⁺ citrate, 0.01% BSA, 0.002% Tween20, pH 7.4). This was followed by dissociation of the particular anti-CI-M6PR VHH in kinetics buffer of pH 7.4, followed by regeneration in Glycine (10 mM, pH 3) and neutralisation. Same cycle was repeated but the dissociation was performed at pH 7.0, 6.0, 5.0, 4.5 and 4.0. A reference well and reference sensors were subtracted from ligand sensors afterwards and Savitsky-Golay filtering was applied on the data. Fitting of the data was performed using a 1:1 model, grouped per pH of dissociation.
# [2] = biological target: T1, recombinant human domain 1-3His6 of the …; assay: BLI exp 1, dissoc pH 5
# Description: as §1, §2
# [3] = biological target: T1, recombinant human domain 1-3His6 of the …; assay: BLI exp 1, dissoc pH 7.4
# Description: as §1, §2
# [4] = biological target: T1, recombinant human domain 1-3His6 of the …; assay: BLI exp 1, dissoc pH 6
# Description: as §1, §2
# [5] = biological target: T1, recombinant human domain 1-3His6 of the …; assay: BLI exp 2, dissoc pH 6
# Description: as §1
# Analysis of the binding kinetics was performed using an Octet Red96 (FortéBio) device with Streptavidin SA Biosensor tips (VWR, 733-2145). To this end, 1 mL of hCI-M6PR_D1-D3 (0.5 mg/mL in 50 mM MES, 150 mM NaCl, pH 6.5) was incubated at room temperature for 30 minutes with a two-fold molar excesses of EZ-Link™ NHS-PEG₄-Biotin (Thermo Fischer, A39259) and NaHCO₃ (100 mM, pH 8.3). Biotinylated hCIMPR_D1-D3 was purified using a Zeba spin desalting column (Thermo Fischer, 89890) and protein concentration was calculated by measuring the absorbance at 280 nm (extinction coefficient 50320 M¹ cm⁻¹). Two-fold biotin-labelled antigen was loaded on the tips (2.5 μg/mL) and subsequently dipped into a particular anti-CI-M6PR VHH-containing solution (ranging from 0-100 nM). Serial VHH dilutions were made in kinetics buffer (0.2 M Na₂HPO₄, 0.1 M Na⁺ citrate, 0.01% BSA, 0.002% Tween20, pH 7.4). After association (100 sec), dissociation was conducted (500 sec) for each anti-CI-M6PR VHH in the kinetics buffer, followed by biosensor regeneration in glycine (10 mM, pH 3) and neutralisation. The same cycle was repeated with dissociation performed in kinetics buffer of pH 7.0, 6.5, 6.0, 5.5, and 5.0.
# A reference well and reference sensors were subtracted from ligand sensors afterwards and Savitsky-Golay filtering was applied on the data. Fitting of the data was performed using a 1:1 model, grouped per dissociation pH.
# [6] = biological target: T1, recombinant human domain 1-3His6 of the …; assay: BLI exp 2, dissoc pH 7.4
# Description: as §1, §2
# [7] = biological target: T1, recombinant human domain 1-3His6 of the …; assay: BLI exp 2, dissoc pH 7
# [8] = biological target: T2, recombinant mouse domain 1-3His6 of CI-M6PR (mouse, UniProt Q07113 36-418); assay: ELISA: coated mouse CI-M6PR Domain 1-3His6, serially diluted VHH, anti-VHH-HRP, TMB, Abs 450 nm; sigmoidal regression [table at the right]
# T2 construct: Genbank NM_010515.2); Range includes the signal peptide; also called mDom1-3His6; mCI-M6PRD1-D3
# T2 sequence (Q07113 other isoform, or with tags, fused parts or gaps): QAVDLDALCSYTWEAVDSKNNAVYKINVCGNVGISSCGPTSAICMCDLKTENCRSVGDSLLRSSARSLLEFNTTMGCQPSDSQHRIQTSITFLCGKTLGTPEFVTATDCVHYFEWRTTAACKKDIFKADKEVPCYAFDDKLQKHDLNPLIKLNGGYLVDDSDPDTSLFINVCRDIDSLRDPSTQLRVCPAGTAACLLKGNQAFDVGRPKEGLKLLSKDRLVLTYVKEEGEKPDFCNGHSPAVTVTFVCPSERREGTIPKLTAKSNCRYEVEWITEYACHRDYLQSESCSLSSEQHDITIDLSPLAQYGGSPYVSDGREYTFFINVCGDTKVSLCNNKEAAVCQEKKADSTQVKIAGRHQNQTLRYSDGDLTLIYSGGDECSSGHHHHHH
# Description: FIGS. 5A-5B. Affinity of anti-CI-M6PR VHHs for recombinant mouse CI-M6PR Domain 1-3His₆ determined by ELISA. (FIG. 5A) Measurement for each of the 11 anti-CI-M6PR VHHs in serial dilution binding to the coated mouse antigen. Detection was performed using an anti-VHH antibody coupled to HRP, and measured as the absorbance of the TMB substrate at 450 nm, correlating to the amount of bound VHH as plotted at the Y-axis. The Log₁₀ concentrations of the serially diluted VHHs were plotted at the X-axis.
# To evaluate the cross-reactivity of the anti-CI-M6PR nanobodies between the human and mouse CI-M6PR domain 1-3His₆ antigen, ELISA was performed with the eleven serially diluted anti-CI-M6PR nanobodies. […] By performing sigmoidal regression on the derived absorbance curves, half-maximal effective concentration (EC₅₀) values of each VHH were acquired, representing the required concentration to occupy 50% of the coated antigen. As a negative control, GBP was included in the assay.
Binder,Kd [1] [nM],koff [1] [s⁻¹],kon [1] [M⁻¹ s⁻¹],Kd [2] [nM],koff [2] [s⁻¹],kon [2] [M⁻¹ s⁻¹],Kd [3] [nM],koff [3] [s⁻¹],kon [3] [M⁻¹ s⁻¹],Kd [4] [nM],koff [4] [s⁻¹],kon [4] [M⁻¹ s⁻¹],koff [5] [s⁻¹],kon [5] [M⁻¹ s⁻¹],Kd [6] [nM],koff [6] [s⁻¹],kon [6] [M⁻¹ s⁻¹],koff [7] [s⁻¹],kon [7] [M⁻¹ s⁻¹],EC50 [8] [nM]
B1,10.8,0.00999,924000,11.7,0.0542,4.62e+06,10.8,0.00999,924000,8.75,0.0321,3.67e+06,0.028,40000,9.08,0.0118,1.3e+06,0.013,130000,–
B2,7.44,~0.00606,814000,24.7,~0.0988,4e+06,7.44,~0.00606,814000,12.7,~0.0165,1.3e+06,0.021,560000,~11.2,0.0099,1e+06,0.0021,1.5e+06,355
B3,0.0903,0.000124,1.37e+06,5.76,0.00861,1.5e+06,0.0903,0.000124,1.37e+06,0.0111,1.52e-05,1.38e+06,0.00029,1.7e+06,–,0.00018,1.8e+06,0.00019,1.5e+06,562
B4,1.69,0.000787,465000,109,0.0328,302000,1.69,0.000787,465000,12.7,0.00293,231000,0.0012,1.3e+08,–,0.00065,–,0.000976,404000,595
B5,≤ 0.000117,≤ 1e-07,853000,1.36,0.00149,1.1e+06,≤ 0.000117,≤ 1e-07,853000,0.27,0.000851,3.16e+06,0.000499,40600,7.09,0.000345,48600,0.000844,53000,670
B6,–,–,–,10,0.00729,729000,2.33,0.00133,571000,3.18,0.00101,316000,0.00126,572000,2.34,0.00133,571000,0.00101,316000,873
B7,3.35,0.00352,1.05e+06,8.5,0.0156,1.84e+06,3.35,0.00352,1.05e+06,1.56,0.00242,1.55e+06,0.00227,718000,4.74,0.00352,743000,0.00242,392000,9750
B8,0.282,0.000444,1.57e+06,84.1,0.0496,590000,0.282,0.000444,1.57e+06,0.674,0.00122,1.81e+06,0.000122,615000,0.282,0.000444,1.57e+06,0.00051,379000,2750
